In patent US20110152173A1 (EMERGENT PRODUCT DEVELOPMENT SEATTLE, published 2011):

Experiments:
[1] = molecular target: T1, TRU(XT6)-1042; experiment: ELISA: Xceptor captured on anti-human IgG-Fc, sIL-6R added, detected with anti-IL-6R-biotin
T1 construct: not trimmed; also called Xceptor TNFRSF1B::anti-HIL6
Experimental: Added to each well of a 96-well plate was 100 μl goat anti-human IgG-Fc (ICN Pharmaceuticals, Costa Mesa, Calif.) from a 2 μg/ml solution in PBS, pH 7.2-7.4. The plates were covered, and incubated overnight at 4° C. After washing four times with PBS-T, 250 μl Blocking buffer (PBS-T with 3% BSA or 10% normal goat serum) was added to each well, the plate was covered, and incubated at room temperature for 2 hours (or at 4° C. overnight). […] After washing the plate five times with PBS-T, added in duplicate wells was 100 μl/well recombinant human sIL-6R(R&D Systems) from a […] solution in Working buffer, the plate was covered, and incubated at room temperature for about 1 to 2 hours. After washing the plate five times with PBS-T, added 100 μl/well anti-human IL-6R-biotin (R&D Systems) from a 100 ng/ml solution in Working buffer, the plate was covered, and incubated at room temperature for about 1 to 2 hours. After washing the plate five times with PBS-T, 100 μl per well horse radish peroxidase-conjugated streptavidin (Zymed, San Francisco, Calif.) diluted 1:4,000 in Working buffer was added, the plate was covered, and incubated at room temperature for 30 minutes. After washing the plate six times with PBS-T, 100 μl per well 3,3,5,5-tetramentylbenzidine (TMB) substrate solution (Pierce, Rockford, Ill.) was added for about 3 to 5 minutes and then the reaction was stopped with 50 μl Stop buffer (1N H₂SO₄) per well. The absorbance of each well was read at 450 nm.

[2] = molecular target: T2, human RANKL (human, UniProt O14788 140-317, limits assumed); experiment: ELISA: plate-coated ligand, Xceptor detected with HRP anti-human IgG-Fc
T2 sequence (looked up): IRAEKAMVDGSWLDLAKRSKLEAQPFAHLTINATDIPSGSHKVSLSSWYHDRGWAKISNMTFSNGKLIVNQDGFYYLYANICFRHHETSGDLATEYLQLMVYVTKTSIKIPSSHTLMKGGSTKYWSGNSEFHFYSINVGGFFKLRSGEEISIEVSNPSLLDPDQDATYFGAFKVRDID
Experimental: (§1) Mouse and human ligands (R&D Systems, Minnesota, MN) were added to wells of a 96-well plate at a concentration of 1 μg/ml in PBS (100 μl/well). Plates were incubated at 4° C. overnight. After washing five times with PBS-T, 250 μl Blocking Buffer (PBS-T with 3% BSA) was added to each well, and the plate covered and incubated at room temperature (RT) for 2 hours. Serial three fold dilutions of xceptors were made in Working Buffer (PBS-T with 1% BSA) starting at 300 ng/ml. As a negative control, an irrelevant xceptor was used. The plate was incubated at RT for 1 hour. After washing five times with PBS-T, 100 μl per well of HRP-conjugated anti-human IgG-Fc (1:5000 in Working buffer) was added, the plate covered, and incubated at RT for 1 hour. After washing five times with PBS-T, 100 µl of Quant-Blu substrate (Pierce, Rockford, Ill.) was added to each well. The plate was incubated at RT for 10-30 minutes, and fluorescence measured at 325/420 nm.

[3] = molecular target: T3, mouse RANKL (mouse, UniProt O35235 158-316, limits assumed); experiment: as above
T3 construct: also called mRANKL
T3 sequence (looked up): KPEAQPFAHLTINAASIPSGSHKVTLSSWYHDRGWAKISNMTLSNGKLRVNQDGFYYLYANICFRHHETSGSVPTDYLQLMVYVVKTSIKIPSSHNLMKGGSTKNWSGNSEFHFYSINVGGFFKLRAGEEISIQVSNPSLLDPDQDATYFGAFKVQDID
Experimental: as §1

[4] = molecular target: T4, human IL7 (human, UniProt P13232 26-177); experiment: as above
T4 sequence (looked up): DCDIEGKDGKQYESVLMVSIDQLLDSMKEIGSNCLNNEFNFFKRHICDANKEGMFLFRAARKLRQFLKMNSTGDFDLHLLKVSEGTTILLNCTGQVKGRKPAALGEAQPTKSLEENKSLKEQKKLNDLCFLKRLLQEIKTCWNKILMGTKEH
Experimental: as §1

B1: recombinant human sIL-6R (receptor)
chain: LAPRRCPAQEVARGVLTSLPGDSVTLTCPGVEPEDNATVHWVLRKPAAGSHPSRWAGMGRRLLLRSVQLHDSGNYSCYRAGRPAGTVHLLVDVPPEEPQLSCFRKSPLSNVVCEWGPRSTPSLTTKAVLLVRKFQNSPAEDFQEPCQYSQESQKFSCQLAVPEGDSSFYIVSMCVASSVGSKFSKTQTFQGCGILQPDPPANITVTAVARNPRWLSVTWQDPHSWNSSFYRLRFELRYRAERSKTFTTWMVKDLQHHCVIHDAWSGLRHVVQLRAQEEFGQGEWSEWSPEAMGTPWTESRSPPAENEVSTPMQALTTNKDDDNILFRDSANATSLPVQD
notes: Bought; also called human soluble IL6R
Q: Does B1 bind [1]?
A: no binding

B2: Xceptor comprising a TNFRSF1B ectodomain and an OPG ectodomain (Fc fusion)
chain: LPAQVAFTPYAPEPGSTCRLREYYDQTAQMCCSKCSPGQHAKVFCTKTSDTVCDSCEDSTYTQLWNWVPECLSCGSRCSSDQVETQACTREQNRICTCRPGWYCALSKQEGCRLCAPLRKCRPGFGVARPGTETSDVVCKPCAPGTFSNTTSSTDICRPHQICNVVAIPGNASMDAVCTSTSPTRSMAPGAVHLPQPVSTRSQHTQPTPEPSTAPSTSFLLPMGPSPPAEGSTGDTGEPKSSDKTHTCPPCPAPEAAGAPSVFLFPPKPKDTLMISRTPEVTCVVVDVSHEDPEVKFNWYVDGVEVHNAKTKPREEQYNSTYRVVSVLTVLHQDWLNGKAYACAVSNKALPAPIEKTISKAKGQPREPQVYTLPPSRDELTKNQVSLTCLVKGFYPSDIAVEWESNGQPENNYKTTPPVLDSDGSFFLYSKLTVDKSRWQQGNVFSCSVMHEALHNHYTQKSLSLSPGQRHNNSSLNTGTQMAGHSPNSETFPPKYLHYDEETSHQLLCDKCPPGTYLKQHCTAKWKTVCAPCPDHYYTDSWHTSDECLYCSPVCKELQYVKQECNRTHNRVCECKEGRYLEIEFCLKHRSCPPGFGVVQAGTPERNTVCKRCPDGFFSNETSSKAPCRKHTNCSVFGLLLTQKGNATHDNICSGNSESTQKCGIDVTLCEEAFFRFAVPTKFTPNWLSVLVDNLPGTKVNAESVERIKRQHSSQEQTFQLLKLWKHQNKDQDIVKKIIQDIDLCENSVQRHIGHANLTFEQLRSLMESLPGKKVGAEDIEKTIKACKPSDQILKLLSLWRIKNGDQDTLKGLMHALKHSKTYHFPKTVTQSLKKTIRFLHSFTMYKLYQKLFLEMIGNQVQSVKISCL
notes: also called TNFR × OPG
Q: Does B2 bind [2]?
A: binds

Q: Does B2 bind [3]?
A: binds

B3: Xceptor comprising a TNFRSF1B ectodomain and an IL7R ectodomain (Fc fusion)
chain: LPAQVAFTPYAPEPGSTCRLREYYDQTAQMCCSKCSPGQHAKVFCTKTSDTVCDSCEDSTYTQLWNWVPECLSCGSRCSSDQVETQACTREQNRICTCRPGWYCALSKQEGCRLCAPLRKCRPGFGVARPGTETSDVVCKPCAPGTFSNTTSSTDICRPHQICNVVAIPGNASMDAVCTSTSPTRSMAPGAVHLPQPVSTRSQHTQPTPEPSTAPSTSFLLPMGPSPPAEGSTGDTGEPKSSDKTHTCPPCPAPEAAGAPSVFLFPPKPKDTLMISRTPEVTCVVVDVSHEDPEVKFNWYVDGVEVHNAKTKPREEQYNSTYRVVSVLTVLHQDWLNGKAYACAVSNKALPAPIEKTISKAKGQPREPQVYTLPPSRDELTKNQVSLTCLVKGFYPSDIAVEWESNGQPENNYKTTPPVLDSDGSFFLYSKLTVDKSRWQQGNVFSCSVMHEALHNHYTQKSLSLSPGQRHNNSSLNTGTQMAGHSPNSESGYAQNGDLEDAELDDYSFSCYSQLEVNGSQHSLTCAFEDPDVNITNLEFEICGALVEVKCLNFRKLQEIYFIETKKFLLIGKSNICVKVGEKSLTCKKIDLTTIVKPEAPFDLSVVYREGANDFVVTFNTSHLQKKYVKVLMHDVAYRQEKDENKWTHVNLSSTKLTLLQRKLQPAAMYEIKVRSIPDHYFKGFWSEWSPSYYFRTPEINNSSGEMDP
notes: also called TNFR × IL7R
Q: Does B3 bind [4]?
A: binds
